# Source: patent publication US20110182887A1 (AstraZeneca / MedImmune, published 2011)
# B1: HB227RHB + HB227RKC humanized antibody (antibody, human IgG1, V domains shown)
# VH: QVQLQESGPALVKPTQTLTLTCTFSGFSLSDYGVNWIRQPPGKALEWLAIIWGDGRTDYNSALKSRLSISKDTSKNQVVLRMTNVDPVDTATYFCARAPGNRAMEYWGQGTVVTVSS
# VL: DIVMTQSPSSLSASVGDRVTITCKASQSVTNDVAWYQQKPGKAPKLLIYYASNRYTGVPDRFSGSGYGTDFTLTISSLQPEDFATYFCQQDYRSPWTFGGGTKVEIKR
# notes: Human IgG1 kappa, COS-7 supernatant; also called RHB+RKC
# B2: HB227RHOv2 + HB227RKC humanized antibody (antibody, human IgG1, V domains shown)
# VH: QVQLEESGGGVVRPGRSLRLSCAASGFTLSDYGVNWIRQAPGKGLEWVGIIWGDGRTDYNSALKSRLTVSRNNSNNTLSLQMNSLTTEDTAVYYCVRAPGNRAMEYWGQGVLVTVS
# VL: DIVMTQSPSSLSASVGDRVTITCKASQSVTNDVAWYQQKPGKAPKLLIYYASNRYTGVPDRFSGSGYGTDFTLTISSLQPEDFATYFCQQDYRSPWTFGGGTKVEIKR
# notes: Human IgG1 kappa, COS-7 supernatant; Carries all four VH back mutations: F29L, D30S, T49G, F67L; also called RHOv2+RKC
# B3: chH/RK (antibody, V domains shown)
# VH: QVQLKESGPGLVAPSQSLSITCTVSGFSLSDYGVNWVRQIPGKGLEWLGIIWGDGRTDYNSALKSRLNISKDNSKSQVFLKMNSLKADDTARYYCARAPGNRAMEYWGQGTSVTVSS
# VL: DIVMTQSPSSLSASVGDRVTITCKASQSVTNDVAWYQQKPGKAPKLLIYYASNRYTGVPDRFSGSGYGTDFTLTISSLQPEDFATYFCQQDYRSPWTFGGGTKVEIKR
# notes: also called chH+RKC; chimeric HB22.7 heavy chain (chH) + HB227RKC light chain
# B4: HB227RHO + HB227RKC humanized antibody (antibody, human IgG1, V domains shown)
# VH: QVQLEESGGGVVRPGRSLRLSCAASGFTLSDYGVNWIRQAPGKGLEWVGIIWGDGRTDYNSALKSRLTVSRNNSNNTLSLQMNSLTTEDTAVYYCVRAPGNRAMEYWGQGVLVTVS
# VL: DIVMTQSPSSLSASVGDRVTITCKASQSVTNDVAWYQQKPGKAPKLLIYYASNRYTGVPDRFSGSGYGTDFTLTISSLQPEDFATYFCQQDYRSPWTFGGGTKVEIKR
# notes: Human IgG1 kappa, COS-7 supernatant; also called RHO+RKC
# B5: HB227RHOv2ACD + HB227RKC humanized antibody (antibody, human IgG1, V domains shown)
# VH: QVQLEESGGGVVRPGRSLRLSCAASGFTFSDYGVNWIRQAPGKGLEWVTIIWGDGRTDYNSALKSRFTVSRNNSNNTLSLQMNSLTTEDTAVYYCVRAPGNRAMEYWGQGVLVTVS
# VL: DIVMTQSPSSLSASVGDRVTITCKASQSVTNDVAWYQQKPGKAPKLLIYYASNRYTGVPDRFSGSGYGTDFTLTISSLQPEDFATYFCQQDYRSPWTFGGGTKVEIKR
# notes: Human IgG1 kappa, COS-7 supernatant; also called RHOv2ACD+RKC
# B6: HB227RHOv2B + HB227RKC humanized antibody (antibody, human IgG1, V domains shown)
# VH: QVQLEESGGGVVRPGRSLRLSCAASGFTLDDYGVNWIRQAPGKGLEWVGIIWGDGRTDYNSALKSRLTVSRNNSNNTLSLQMNSLTTEDTAVYYCVRAPGNRAMEYWGQGVLVTVS
# VL: DIVMTQSPSSLSASVGDRVTITCKASQSVTNDVAWYQQKPGKAPKLLIYYASNRYTGVPDRFSGSGYGTDFTLTISSLQPEDFATYFCQQDYRSPWTFGGGTKVEIKR
# notes: RHOv2 with the D30S back mutation removed; Human IgG1 kappa, COS-7 supernatant; also called HB227v2B
# B7: HB227RHOv2C + HB227RKC humanized antibody (antibody, human IgG1, V domains shown)
# VH: QVQLEESGGGVVRPGRSLRLSCAASGFTLSDYGVNWIRQAPGKGLEWVTIIWGDGRTDYNSALKSRLTVSRNNSNNTLSLQMNSLTTEDTAVYYCVRAPGNRAMEYWGQGVLVTVS
# VL: DIVMTQSPSSLSASVGDRVTITCKASQSVTNDVAWYQQKPGKAPKLLIYYASNRYTGVPDRFSGSGYGTDFTLTISSLQPEDFATYFCQQDYRSPWTFGGGTKVEIKR
# notes: RHOv2 with the T49G back mutation removed; Human IgG1 kappa, COS-7 supernatant; also called HB227v2C
# B8: humanized anti-hCD22 antibody RHOv2ACD/RKA (HB227RHOv2ACD VH + HB227RKA VK) (antibody, human IgG1, V domains shown)
# VH: QVQLEESGGGVVRPGRSLRLSCAASGFTFSDYGVNWIRQAPGKGLEWVTIIWGDGRTDYNSALKSRFTVSRNNSNNTLSLQMNSLTTEDTAVYYCVRAPGNRAMEYWGQGVLVTVS
# VL: DIVMTQSPSSLSASVGDRVTITCKASQSVTNDVAWYQQKPGKAPKLLIYYASNRYTGVPSRFSGSGSGTDFTLTISSLQPEDFATYYCQQDYRSPWTFGGGTKVEIKR
# notes: Human IgG1 kappa expression vectors; It was labelled with Alexa-fluor in some cell assays; also called RHOvACD/RKA; RHOACD/RKA
# B9: HB227RHOv2A + HB227RKC humanized antibody (antibody, human IgG1, V domains shown)
# VH: QVQLEESGGGVVRPGRSLRLSCAASGFTFSDYGVNWIRQAPGKGLEWVGIIWGDGRTDYNSALKSRLTVSRNNSNNTLSLQMNSLTTEDTAVYYCVRAPGNRAMEYWGQGVLVTVS
# VL: DIVMTQSPSSLSASVGDRVTITCKASQSVTNDVAWYQQKPGKAPKLLIYYASNRYTGVPDRFSGSGYGTDFTLTISSLQPEDFATYFCQQDYRSPWTFGGGTKVEIKR
# notes: RHOv2 with the F29L back mutation removed; Human IgG1 kappa, COS-7 supernatant; also called HB227v2A
# B10: HB227RHF + HB227RKC humanized antibody (antibody, human IgG1, V domains shown)
# VH: QVQLQESGPALVKPTQTLTLTCTVSGFSLSDYGVNWIRQPPGKALEWLGIIWGDGRTDYNSALKSRLSISKDNSKNQVVLRMTNVDPVDTATYFCARAPGNRAMEYWGQGTVVTVSS
# VL: DIVMTQSPSSLSASVGDRVTITCKASQSVTNDVAWYQQKPGKAPKLLIYYASNRYTGVPDRFSGSGYGTDFTLTISSLQPEDFATYFCQQDYRSPWTFGGGTKVEIKR
# notes: Human IgG1 kappa, COS-7 supernatant; also called RHF+RKC; humanized (RHF+RKC) antibody
# B11: HB227RHOv2D + HB227RKC humanized antibody (antibody, human IgG1, V domains shown)
# VH: QVQLEESGGGVVRPGRSLRLSCAASGFTLSDYGVNWIRQAPGKGLEWVGIIWGDGRTDYNSALKSRFTVSRNNSNNTLSLQMNSLTTEDTAVYYCVRAPGNRAMEYWGQGVLVTVS
# VL: DIVMTQSPSSLSASVGDRVTITCKASQSVTNDVAWYQQKPGKAPKLLIYYASNRYTGVPDRFSGSGYGTDFTLTISSLQPEDFATYFCQQDYRSPWTFGGGTKVEIKR
# notes: RHOv2 with the F67L back mutation removed; Human IgG1 kappa, COS-7 supernatant; also called HB227v2D
# B12: HB227RHC + HB227RKC humanized antibody (antibody, human IgG1, V domains shown)
# VH: QVQLQESGPALVKPTQTLTLTCTFSGFSLSDYGVNWIRQPPGKALEWLGIIWGDGRTDYNSALKSRLSISKDNSKNQVVLRMTNVDPVDTATYFCARAPGNRAMEYWGQGTVVTVSS
# VL: DIVMTQSPSSLSASVGDRVTITCKASQSVTNDVAWYQQKPGKAPKLLIYYASNRYTGVPDRFSGSGYGTDFTLTISSLQPEDFATYFCQQDYRSPWTFGGGTKVEIKR
# notes: Human IgG1 kappa, COS-7 supernatant; also called RHC+RKC
# B13: chimeric HB22.7 antibody chHB227 (chH + chL) (antibody, V domains shown)
# VH: QVQLKESGPGLVAPSQSLSITCTVSGFSLSDYGVNWVRQIPGKGLEWLGIIWGDGRTDYNSALKSRLNISKDNSKSQVFLKMNSLKADDTARYYCARAPGNRAMEYWGQGTSVTVS
# VL: SIVMTQTPKFLLVSAGDRITLTCKASQSVTNDVAWYQQKPGQSPKLLIYYASNRYTGVPDRFTGSGYGTDFTFTISTVQAEDLAVYFCQQDYRSPWTFGGGTKLEI
# notes: Tested as COS-7 supernatant; also called CH+CK; fully chimeric antibody
# B14: HB227RHF heavy chain + chimeric HB22.7 light chain (chL) (antibody, human IgG1, V domains shown)
# VH: QVQLQESGPALVKPTQTLTLTCTVSGFSLSDYGVNWIRQPPGKALEWLGIIWGDGRTDYNSALKSRLSISKDNSKNQVVLRMTNVDPVDTATYFCARAPGNRAMEYWGQGTVVTVSS
# VL: SIVMTQTPKFLLVSAGDRITLTCKASQSVTNDVAWYQQKPGQSPKLLIYYASNRYTGVPDRFTGSGYGTDFTFTISTVQAEDLAVYFCQQDYRSPWTFGGGTKLEI
# notes: Human IgG1 kappa, COS-7 supernatant; The VH entry may include the leader; also called HB227RHF+chL; RHF+chL
# Experiments:
# [1] = target: T1, human CD22 (hCD22) expressed on the cell surface (human, UniProt P20273 20-847); test: cell ELISA on BHK cells expressing human CD22, COS-7 supernatant, OD 655 nm
# T1 construct: whole, on cells; One molecule is used for all cell-surface formats; also called human CD22 antigen; BHK-CD22
# [2] = target: T1, human CD22 (hCD22) expressed on the …; test: cell ELISA on BHK cells expressing human CD22, RHOv2 heavy chain expressed with the RKC light chain in COS cells
# [3] = target: T1, human CD22 (hCD22) expressed on the …; test: cell ELISA on BHK cells expressing human CD22, OD 655 nm
# [4] = target: T1, human CD22 (hCD22) expressed on the …; test: cell ELISA on BHK cells expressing human CD22, RHOv2B heavy chain expressed with the RKC light chain in COS cells
# [5] = target: T1, human CD22 (hCD22) expressed on the …; test: cell ELISA on BHK cells expressing human CD22, RHOv2C heavy chain expressed with the RKC light chain in COS cells
# [6] = target: hCD22 (ligand immobilised on the BIAcore CM5 sensor chip) (human, UniProt P20273 20-687, limits assumed); test: SPR (BIAcore 3000), hCD22 immobilised on CM5 chip, IgG injected, 1:1 model
# Procedure: Binding affinity of HB22.7 and RHOv2ACD/RKA were determined on a BIAcore 3000 instrument (BIAcore, Inc., Uppsala, Sweden). The ligand, hCD22, was prepared at 50 nM in 10 mM NaOAc, pH4 buffer. It was injected onto an EDC/NHS-activated CM5 sensor chip (BIAcore, Inc. Uppsala, Sweden) using a standard immobilization protocol. Following this, any unreacted active ester moieties were quenched using 1M Et-NH2 (ethanolamine; coupling reagents purchased from BIAcore, Inc.). A total of 535 and 689 RUs hCD22 remained bound to two sensor chip surfaces used in these experiments. Separately, a blank surface was prepared on each sensor chip using the identical protocol (minus protein). The blank surfaces were used as a reference cell in the experiments, and served to correct for both non-specific binding and some housekeeping artifacts.
# For the kinetic experiments, HB22.7 and RHOv2ACD/RKA were prepared as two dilution series, starting at 22 nM and 100 nM, then diluted three- and two-fold, respectively, down to final concentrations of 0.03 nM and 0.39 nM in HBS-EP buffer (BIAcore, Inc., consisting of the following: 10 mM HEPES buffer, pH7.4, 150 mM NaCl, 3 mM EDTA, and 0.005% P20). Each concentration of IgG was then injected over both the CD22 and reference cell surfaces, which are connected in series. Between injections, surfaces were regenerated with a 1-minute injection of 3M MgCl2.
# [7] = target: T1, human CD22 (hCD22) expressed on the …; test: cell ELISA on BHK cells expressing human CD22, RHOv2A heavy chain expressed with the RKC light chain in COS cells
# [8] = target: T1, human CD22 (hCD22) expressed on the …; test: cell ELISA on BHK cells expressing human CD22, COS-7 supernatant, OD 655 nm; remark: listed apart in the source
# [9] = target: T1, human CD22 (hCD22) expressed on the …; test: cell ELISA on BHK cells expressing human CD22, RHOv2D heavy chain expressed with the RKC light chain in COS cells
# [10] = target: T1, human CD22 (hCD22) expressed on the …; test: cell ELISA on BHK cells expressing human CD22, OD 655 nm; remark: listed apart in the source
# [11] = target: T1, human CD22 (hCD22) expressed on the …; test: as above; remark: listed apart in the source
# [12] = target: T1, human CD22 (hCD22) expressed on the …; test: cell ELISA on BHK cells expressing human CD22, COS-7 supernatant, goat anti-human Ig-HRP, OD 450 nm
# Description: The BHK-CD22 binding assay was used to test the binding activity of the chHB227 antibody in the transiently transformed COS 7 culture supernatants. A goat anti-human Ig-HRP conjugate (Sigma Chemicals) was used to detect binding of chHB22.7 mAb while a goat anti-mouse Ig-HRP conjugate (Southern Biotechnology) was used to detect binding of the parental mouse HB22.7 mAb. The bound HRP conjugates were exposed to the substrate o-phenyldiamine (OPD) and the resulting products detected at 450 nm.
binder,measurement,setting,value
B1,binding result,[1],binds
B2,binding result,[2],binds
B3,EC50 (read off the curve),[1],~0.2 µg/mL
B4,binding result,[1],binds
B5,binding result,[3],binds
B6,binding result,[4],binds
B7,binding result,[5],binds
B8,Kd,[6],22 nM
same,koff,[6],0.00069 s⁻¹
same,kon,[6],32000 M⁻¹ s⁻¹
B9,binding result,[7],binds
B10,EC50 (read off the curve),[8],~0.2 µg/mL
B11,binding result,[9],binds
B12,binding result,[1],binds
B13,EC50 (read off the curve),[10],~0.3 µg/mL
same,EC50 (read off the curve),[11],~0.3 µg/mL
same,EC50 (read off the curve),[1],~0.1 µg/mL
same,EC50 (read off the curve),[12],~0.1 µg/mL
same,EC50 (read off the curve),[8],~0.1 µg/mL
same,EC50 (read off the curve),[3],~0.3 µg/mL
B14,binding result,[8],binds
